Assay results taken from patent publication US20150307599A1 (GARVAN INSTITUTE OF MEDICAL RESEARCH, published 2015).
The star is where a group is joined. Biotin = O=C1N[C@H]2[C@H](CS[C@H]2CCCCC(=O)*)N1; Ahx = NCCCCCC(=O)O

Assays:
biotin-NPY20-36 [1] = molecular target: T1, biotin-NPY20-36 (SMILES …); assay: soluble scFv ELISA, biotin-NPY20-36 on streptavidin
T1 construct: Captured on neutravidin or streptavidin plates
T1 peptide: {Biotin-Ahx}-YYSALRHYINLITRQRY-NH2
Protocol: (§1) In order to analyze antigen binding, ELISA plates were coated with 1 ug/mL biotin-NPY₂₀₋₃₆ on 10 ug/mL streptavidin […] streptavidin only.
(§2) Plates were then blocked with 5% skim milk/PB ST and incubated with supernatant from the IPTG-induced cultures. Binding of soluble scFv to wells was detected with peroxidase conjugated anti-cMyc.

biotin-hPP = molecular target: T2, biotin-hPP (human, N-terminal Biotin-Ahx-; C-terminal amide (-NH2)); assay: BLI (ForteBio Blitz), biotinylated peptide on streptavidin sensor, scFv in solution
T2 peptide: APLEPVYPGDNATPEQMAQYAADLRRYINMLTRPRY
Protocol: (§3) Affinity of the purified scFv for biotin-NPY, biotin-hPYY and biotin-hPP was determined using a Blitz system (ForteBio). Streptavidin Biosensors were blocked for 1 hr with 1% BSA in PBS. Biosensors were then coupled for 120 seconds with 1 μM solutions of biotinylated peptide followed by a 30 second baseline measurement. The sensors were then transferred to varying dilutions of purified scFv and association was measured for 300 seconds. The sensors were then transferred to PBS and dissociation was measured for 900 seconds. Global fits were determined for association and dissociation curves at two concentrations of each scFv against each of the peptides. All curves were referenced with peptide-only and scFv-only runs.

biotin-hPYY = biotin-hPYY (human, N-terminal Biotin-Ahx-; C-terminal amide (-NH2)); assay: as above
Sequence of biotin-hPYY (human, N-terminal Biotin-Ahx-; C-terminal amide (-NH2)) (peptide, as listed by the source): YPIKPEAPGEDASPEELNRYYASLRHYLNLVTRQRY
Protocol: as §3

biotin-NPY = biotin-NPY (N-terminal Biotin-Ahx-; C-terminal amide (-NH2)); assay: as above
Protocol: as §3

biotin-NPY20-36 [2] = molecular target: T1, biotin-NPY20-36; assay: soluble scFv ELISA, biotin-NPY20-36 on streptavidin, anti-cMyc detection
Protocol: as §1, §2

biotin-NPY20-36 [3] = molecular target: T1, biotin-NPY20-36; assay: phage ELISA, scFv on phage, anti-M13 detection
Protocol: Overnight cultures were grown from clones transformed with the humanized 5E12-B7 scFv genes pHEN1 vector. Phages were then produced through overnight incubation after rescue with KM13 helper phage. In order to analyze antigen binding, ELISA plates were coated with 500 ng/mL biotin-NPY₂₀₋₃₆ on 10 ug/mL neutravidin; 10 ug/mL neutravidin only; 10 ug/mL Protein A or 10 ug/mL Protein L
ELISA plates were blocked with 5% skim milk/PB ST then incubated with phage culture supernatant which had also been blocked with 5% skim milk/1% Tween (final concentration). Binding of scFv-phage to wells was detected with Peroxidase conjugated anti-M13 secondary antibody.

Binder | binding result (biotin-NPY20-36 [1]) | max signal (nm) (biotin-hPP) | Kd (biotin-hPYY) [nM] | Kd (biotin-NPY) [nM] | binding result (biotin-NPY20-36 [2]) | binding result (biotin-NPY20-36 [3])
scFv-3 (human) (scFv, Human scFv from the Garvan-2 phage library; Whole entry used as named) scFv: EVQLLESGGGLVQPGGSLRLSCAASGFRFSDEDMGWVRQAPGKGLEWVSSIYGPSGSTYYADSVKGRFTISRDNSKNTLYLQMNSLRAEDTAVYYCAKDDVGTGTFDYWGQGTLVTVSSGGGGSGGGGSGGGGSTDIQMTQSPSSLSASVGDRVTITCRASQYIYYALNWYQQKPGKAPKLLIYDYSALQSGVPSRFSGSGSGTDFTLTISSLQPEDFATYYCQQSYYHPATFGQGTKVEIKR | binds | < 0.2 | 1910 |  |  | 
mouse 5E12-B7 scFv PSE2 (scFv, V domains shown, not shown: small tags and cut ends, also called 5E12 (mouse); mouse 5E12 PSE2) VH: QVQLQHPGTEVVKPGASVKLSCKASGYTFTNYWMHWVKQRPGQGLEWIGNIDPSNGGTNYNEKFKSKATLTVDKSSSTAYMQLSSLTSEDSAVYYCASFAYWGQGTLVTVSS VL: DIQMTQSPASLSASVGETVTITCRASGNIHNYLAWYQQKQGKSPQLLVYNAKTLADGVPSRFSGSGSGTQYSLKISSLRPEDFGSYYCQHFWSPPFTFGSGTKLEIK |  |  | 32.9 | 22.1 | binds | 
scFv-6 (human) (scFv, Human scFv from the Garvan-2 phage library; Whole entry used as named) scFv: EVQLLESGGGLVQPGGSLRLSCAASGFRFSAEDMGWVRQAPGKGLEWVSSIASAGASTYYADSVKGRFTISRDNSKNTLYLQMNSLRAEDTAVYYCAKHMYSYAIFDYWGQGTLVTVSSGGGGSGGGGSGGGGSTDIQMTQSPSSLSASVGDRVTITCRASQDIADALNWYQQKPGKAPKLLIYAASSLQSGVPSKFSGSGSGTDFTLTISSLQPEDFATYYCQQGYVHPPTFGQGTKVEIKR | binds | < 0.2 | 3240 | 177 |  | 
scFv-7 (human) (scFv, Human scFv from the Garvan-2 phage library; Whole entry used as named) scFv: EVQLLESGGGLVQPGGSLRLSCAASGFRFDYEDMGWVRQAPGKGLEWVSAIASDGDSTYYADSVKGRFTISRDNSKNTLYLQMNSLRAEDTAVYYCAKIYYDGAYRVFDYWGQGTLVTVSSGGGGSGGGGSGGGGSTDIQMTQSPSSLSASVGDRVTITCRASQSISSYLNWYQQKPGKAPKLLIYSASYLQSGVPSRFSGSGSGTDFTLTISSLQPEDFATYYCQQYSMLPTTFGQGTKVEIKR | binds | < 0.2 |  | 9250 |  | 
h5E12 IGHV1-46/DPK9 scFv (humanized) (scFv, Humanized 5E12 scFv) scFv: QVQLVQSGAEVKKPGASVKVSCKASGYTFTNYWMHWVRQAPGQGLEWMGNIDPSNGGTNYNEKFKSRVTMTRDTSTSTVYMELSSLRSEDTAVYYCASFAYWGQGTLVTVSSGGGGSGGGGSGGGGSTDIQMTQSPSSLSASVGDRVTITCRASGNIHNYLAWYQQKPGKAPKLLIYNAKTLADGVPSRFSGSGSGTDFTLTISSLQPEDFATYYCQHFWSPPFTFGQGTKVEIKR |  | < 0.2 | 1040 | 905 |  | binds
h5E12 IGHV1-69/DPK9 scFv (humanized) (scFv, Humanized 5E12 scFv) scFv: QVQLVQSGAEVKKPGSSVKVSCKASGYTFTNYWMHWVRQAPGQGLEWMGNIDPSNGGTNYNEKFKSRVTITADESTSTAYMELSSLRSEDTAVYYCASFAYWGQGTLVTVSSGGGGSGGGGSGGGGSTDIQMTQSPSSLSASVGDRVTITCRASGNIHNYLAWYQQKPGKAPKLLIYNAKTLADGVPSRFSGSGSGTDFTLTISSLQPEDFATYYCQHFWSPPFTFGQGTKVEIKR |  | < 0.2 | 140 | 142 |  | binds
